From patent publication US20200277359A1 (published 2020)
Substitutions are numbered along the chain they refer to.

B1: human mAb 4J21 (antibody, V domains shown)
VH: QVQLVQSGSELKKPGASVKVSCKASGYSFTSYSINWVRQAPGQGPEWMGWIDTNTGNPTYAQDFAGRFVFSLDTSVTTAYLQISSLKAGDTAVYYCATYYVDLWGSYRQDYYGMDVWGHGTLVTVSS
VL: QSVVTQPPSVSGTPGQGVTISCSGGSSNIGSNPVNWYQMVPGTAPKLLLYTNNQRPSGVPDRFSGSKSGTSASLAINGLQSEDEADYYCAVWDDSLSGRWVFGGGTKLTVL
B2: human mAb 2B4 (antibody, V domains shown)
VH: QVQLVQSGSELKKPGASVKVSCKASGYSFTSYSINWVRQAPGQGPEWMGWIDTNTGNPTYAQDFAGRFVFSLDTSVTTAYLQISSLKAGDTAVYYCATYYVDLWGSYRQDYYGMDVWGH
VL: B1 VL with V4L, V10A, G17R, L108V
B3: human mAb 5O14 (antibody, V domains shown)
VH: QVQLVQSGGRVVQAGRSLRLSCAASGFTFSMYGVHWVRQAPGKGLEWVAVIWNDGSKEYYGDSVKGRFTISRDNSRNTLYLQMNSLRVDDTAVYFCARDGIPDPERGDYGGLDYWGQGTLVTVSS
VL: QTVVTQFPSSPFASVGDGVTITCRARQSISSYVNWYQQKPGKAPKLLIYATSSLQSGVPSRFSGSGYGTDFTLTISGLQPEDFATYYCQQSYSFPRTFGQGTKVEIK
B4: human mAb 2C2 (antibody, V domains shown)
VH: QVQLVQSGGGLVQPGRSLTLSCAASGFTFDVYAMHWVRQAPGKGLEWVAGISWNSGSVGYADSMKGRFTISRDNAKNSLYLQINSLRAEDTALYYCAKAFWFGELSGYGMDVWGQGTLVTVSS
VL: QAVVTQPPSASGFPGQSVTISCTGTSSDVGSYNYVSWYQQHPGKAPKLIIYAVTRRPSGVPERFSGSKSGNTASLTVSGLQAEDEADYYCTSYAGNNKDVFGTGTKVTVL

Tests used:
[1] = biological target: T1, Recombinant CHIKV p62-E1 (Chikungunya virus); assay: SPR (Biacore T100), IgG captured on anti-human IgG, p62-E1 injected
T1 construct: also called soluble CHIKV p62-E1; monomeric E1 protein

[2] = biological target: T2, Recombinant CHIKV E2 ectodomain protein (corresponding to the CHIKV-LR2006 strain) (Chikungunya virus strain LR2006); assay: ELISA on coated E2 ectodomain, mAb at 10 µg/mL
T2 construct: extracellular domain; also called CHIKV-LR2006 E2 ectodomain; purified E2 protein

Row | Binder | t1/2 [1] [min] | OD450 [2] [od] | Kd [1] [nM] | koff [1] [s⁻¹] | kon [1] [M⁻¹ s⁻¹]
1 | B1 | 186 | 0.5 to 0.99 |  |  | 
2 | B2 |  | 0.5 to 0.99 |  |  | 
3 | B3 | 13 | > 1 | 1.15 | 0.000911 | 790000
4 | B4 | 19 |  |  |  | 
